Test results from PMC11189301, “Structure of the human outer kinetochore KMN network complex” (Nature Structural & Molecular Biology, 2024).
Residue numbers refer to the chain shown, from its start. Numbers in names are those of the source.

B1: MIS12 complex (Mis12, Pmf1, Dsn1, Nsl1), wild type, full length (complex, Homo sapiens)
chain 1: MSVDPMTYEAQFFGFTPQTCMLRIYIAFQDYLFEVMQAVEQVILKKLDGIPDCDISPVQIRKCTEKFLCFMKGHFDNLFSKMEQLFLQLILRIPSNILLPEDKCKETPYSEEDFQHLQKEIEQLQEKYKTELCTKQALLAELEEQKIVQAKLKQTLTFFDELHNVGRDHGTSDFRESLVSLVQNSRKLQNIRDNVEKESKRLKIS
chain 2: MAEASSANLGSGCEEKRHEGSSSESVPPGTTISRVKLLDTMVDTFLQKLVAAGSYQRFTDCYKCFYQLQPAMTQQIYDKFIAQLQTSIREEISDIKEEGNLEAVLNALDKIVEEGKVRKEPAWRPSGIPEKDLHSVMAPYFLQQRDTLRRHVQKQEAENQQLADAVLAGRRQVEELQLQVQAQQQAWQALHREQRELVAVLREPE
chain 3: MTSVTRSEIIDEKGPVMSKTHDHQLESSLSPVEVFAKTSASLEMNQGVSEERIHLGSSPKKGGNCDLSHQERLQSKSLHLSPQEQSASYQDRRQSWRRASMKETNRRKSLHPIHQGITELSRSISVDLAESKRLGCLLLSSFQFSIQKLEPFLRDTKGFSLESFRAKASSLSEELKHFADGLETDGTLQKCFEDSNGKASDFSLEASVAEMKEYITKFSLERQTWDQLLLHYQQEAKEILSRGSTEAKITEVKVEPMTYLGSSQNEVLNTKPDYQKILQNQSKVFDCMELVMDELQGSVKQLQAFMDESTQCFQKVSVQLGKRSMQQLDPSPARKLLKLQLQNPPAIHGSGSGSCQ
chain 4: MAGSPELVVLDPPWDKELAAGTESQALVSATPREDFRVRCTSKRAVTEMLQLCGRFVQKLGDALPEEIREPALRDAQWTFESAVQENISINGQAWQEASDNCFMDSDIKVLEDQFDEIIVDIATKRKQYPRKILECVIKTIKAKQEILKQYHPVVHPLDLKYDPDPAPHMENLKCRGETVAKEISEAMKSLPALIEQGEGFSQVLRMQPVIHLQRIHQEVFSSCHRKPDAKPENFITQIETTPTETASRKTSDMVLKRKQTKDCPQRKWYPLRPKKINLDT
notes: Mis12, subunit of human MIS12C; Pmf1, subunit of human MIS12C; Dsn1, subunit of human MIS12C; Nsl1, subunit of human MIS12C; The DS tag on Pmf1 is TEV cleavable; a cleavage is not described; also called MIS12C (WT); wild-type MIS12C; source: High-5 insect cells (baculovirus), purified (Strep-Tactin, Resource S, Superdex 200); copies: + + +
B2: MIS12 complex with Dsn1 P332W R334A L336R (complex, Homo sapiens)
chain 1: B1 chain 1
chain 2: B1 chain 2
chain 3: B1 chain 3 with P332W, R334A, L336R
chain 4: B1 chain 4
notes: Mis12, subunit of human MIS12C; Pmf1, subunit of human MIS12C; Dsn1, subunit of human MIS12C, P332W R334A L336R; Nsl1, subunit of human MIS12C; also called MIS12C^(Dsn1-P332W R334A L336R); MIS12C^(Dsn1 P332W/R334A/L336R); source: High-5 insect cells (baculovirus), purified (Strep-Tactin, Resource S, Superdex 200); copies: + + +
B3: MIS12 complex with Nsl1 E219R V220R F221A (complex, Homo sapiens)
chain 1: B1 chain 1
chain 2: B1 chain 2
chain 3: B1 chain 3
chain 4: B1 chain 4 with E219R, V220R, F221A
notes: Mis12, subunit of human MIS12C; Pmf1, subunit of human MIS12C; Dsn1, subunit of human MIS12C; Nsl1, subunit of human MIS12C, E219R V220R F221A; also called MIS12C^(Nsl1-E219R V220R F221A); MIS12C^(Nsl1 E219/RV220R/F221A); source: High-5 insect cells (baculovirus), purified (Strep-Tactin, Resource S, Superdex 200); copies: + + +

target: T1, NDC80 complex (Ndc80, Nuf2, Spc24, Spc25), full length, unmodified (Homo sapiens, UniProt O14777 1-642; Q9BZD4 1-464; Q8NBT2 1-197; Q9HBM1 1-224); assay: SEC; MIS12C variant mixed with NDC80C at 4 µM each; 20 mM HEPES pH 7.8, 150 mM NaCl, 0.5 mM TCEP; Superose 6; fractions on SDS-PAGE; settings: both partners purified
T1 construct: Ndc80, subunit of human NDC80C; Nuf2, subunit of human NDC80C; Spc24, subunit of human NDC80C; Spc25, subunit of human NDC80C; The DS tag on Nuf2 is TEV cleavable; a cleavage is not described; Ndc80 and Nuf2 were in the cryo-EM sample but not seen at high resolution; also called wild-type NDC80; source: High-5 insect cells (baculovirus), purified (Strep-Tactin, Resource Q, Superdex 200); copies: …
T1 sequence (O14777 whole entry, chain 1 of 4): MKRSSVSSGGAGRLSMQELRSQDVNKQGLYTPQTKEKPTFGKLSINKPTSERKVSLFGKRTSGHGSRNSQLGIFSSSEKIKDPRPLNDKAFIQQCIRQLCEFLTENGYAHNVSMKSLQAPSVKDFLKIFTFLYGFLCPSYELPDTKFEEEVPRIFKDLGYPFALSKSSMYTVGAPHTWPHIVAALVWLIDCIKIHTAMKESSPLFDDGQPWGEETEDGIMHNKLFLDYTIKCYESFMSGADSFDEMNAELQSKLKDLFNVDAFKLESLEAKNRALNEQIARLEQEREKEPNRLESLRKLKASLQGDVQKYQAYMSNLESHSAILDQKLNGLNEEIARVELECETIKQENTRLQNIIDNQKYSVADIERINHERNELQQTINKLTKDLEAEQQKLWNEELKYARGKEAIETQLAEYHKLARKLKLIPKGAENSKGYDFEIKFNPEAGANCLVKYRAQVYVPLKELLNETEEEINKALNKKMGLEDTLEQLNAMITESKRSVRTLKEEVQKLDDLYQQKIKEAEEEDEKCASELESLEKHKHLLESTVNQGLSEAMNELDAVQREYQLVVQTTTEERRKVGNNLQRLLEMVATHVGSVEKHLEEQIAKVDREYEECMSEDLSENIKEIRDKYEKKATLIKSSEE
T1 sequence (Q9BZD4 whole entry, chain 2 of 4): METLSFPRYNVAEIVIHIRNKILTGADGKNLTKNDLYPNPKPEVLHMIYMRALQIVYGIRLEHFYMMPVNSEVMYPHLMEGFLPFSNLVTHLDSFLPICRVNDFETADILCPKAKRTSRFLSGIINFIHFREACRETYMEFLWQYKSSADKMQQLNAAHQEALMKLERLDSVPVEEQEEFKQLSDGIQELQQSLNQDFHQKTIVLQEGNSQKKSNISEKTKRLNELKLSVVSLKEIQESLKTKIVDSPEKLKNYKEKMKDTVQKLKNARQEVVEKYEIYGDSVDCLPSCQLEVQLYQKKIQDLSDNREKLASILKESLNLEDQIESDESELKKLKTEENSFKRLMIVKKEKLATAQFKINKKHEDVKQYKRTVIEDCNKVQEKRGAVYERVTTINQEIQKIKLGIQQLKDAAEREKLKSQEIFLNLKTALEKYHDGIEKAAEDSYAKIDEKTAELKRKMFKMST
T1 sequence (Q8NBT2 whole entry, chain 3 of 4): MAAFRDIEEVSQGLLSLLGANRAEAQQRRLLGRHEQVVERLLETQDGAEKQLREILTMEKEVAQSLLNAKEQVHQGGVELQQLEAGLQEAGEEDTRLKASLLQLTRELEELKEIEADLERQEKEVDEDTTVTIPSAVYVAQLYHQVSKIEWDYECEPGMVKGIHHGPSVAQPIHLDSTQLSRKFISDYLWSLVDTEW
T1 sequence (Q9HBM1 whole entry, chain 4 of 4): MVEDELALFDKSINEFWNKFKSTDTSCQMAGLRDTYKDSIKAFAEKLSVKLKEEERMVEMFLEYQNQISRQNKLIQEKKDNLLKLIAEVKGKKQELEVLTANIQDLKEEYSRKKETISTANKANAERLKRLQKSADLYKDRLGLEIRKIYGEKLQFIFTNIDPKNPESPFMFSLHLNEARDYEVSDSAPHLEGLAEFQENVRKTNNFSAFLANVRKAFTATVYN

Binder	binding result
B1	binds
B2	binds
B3	binds
